Measured values published in patent US20260055187A1 (SANTA ANA BIO, published 2026).
Values belong to the binder of their own block, whether it stands above or below them.

Experiments:
[1] = target: T1, CTLA-4 extracellular domain (PD-1 family member) (UniProt P16410 36-161, limits assumed); experiment: ELISA, His-tagged extracellular domain on plate
T1 construct: extracellular domain; not shown: His tag
T1 sequence (looked up): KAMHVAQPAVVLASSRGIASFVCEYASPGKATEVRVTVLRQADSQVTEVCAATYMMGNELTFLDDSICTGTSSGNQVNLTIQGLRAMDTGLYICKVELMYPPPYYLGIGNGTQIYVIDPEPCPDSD
Protocol: (§1) His-tagged extracellular domains of human PD-1, cynomolgus PD-1, and PD-1 family members ICOS, CD28, and CTLA-4 extracellular domains were immobilized on 96 well ELISA plates. Plates were washed with PBST (phosphate buffered saline+0.05% Tween 20) and blocked for 1 hour with 1% BSA in PBS. Following washing with PBST, test PD-1 antibodies were added to the coated plate and incubated for 2 hours at room temperature. Plates were washed and incubated with HRP-conjugated goat anti-human IgG secondary antibody for 1 hour at room temperature. Following washing, antibody binding was detected colorimetrically by adding 3,3′,5,5′-tetramethylbenzidine (TMB) and incubated at room temperature for 10-20 minutes before adding 2.5N sulfuric acid stopping solution. Absorbance at 450 nm was measured on a plate reader (PerkinElmer). Data was analyzed using Graph-Pad Prism.

[2] = target: T2, CD28 extracellular domain (PD-1 family member) (UniProt P10747 19-152, limits assumed); experiment: ELISA, His-tagged extracellular domain on plate
T2 construct: extracellular domain; not shown: His tag
T2 sequence (P10747 19-152 limits assumed): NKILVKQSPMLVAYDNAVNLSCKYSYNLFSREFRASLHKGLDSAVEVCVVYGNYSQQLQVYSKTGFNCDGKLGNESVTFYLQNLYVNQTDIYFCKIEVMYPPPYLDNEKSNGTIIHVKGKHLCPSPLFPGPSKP
Protocol: as §1

[3] = target: T3, ICOS extracellular domain (PD-1 family member) (UniProt Q9Y6W8 21-140, limits assumed); experiment: ELISA, His-tagged extracellular domain on plate
T3 construct: extracellular domain; not shown: His tag
T3 sequence (looked up): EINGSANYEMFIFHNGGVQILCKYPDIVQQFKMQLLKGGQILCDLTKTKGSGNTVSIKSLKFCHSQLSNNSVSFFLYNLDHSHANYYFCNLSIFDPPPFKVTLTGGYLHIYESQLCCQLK
Protocol: as §1

PD-1 biotin = target: T4, PD-1 biotin (UniProt Q15116 25-167, limits assumed, biotin (site not stated)); experiment: PD-1/PD-L1 blocking ELISA, interpolated on a standard curve of a PD-1 neutralizing antibody
T4 construct: also called biotinylated PD-1
T4 sequence (Q15116 25-167 limits assumed): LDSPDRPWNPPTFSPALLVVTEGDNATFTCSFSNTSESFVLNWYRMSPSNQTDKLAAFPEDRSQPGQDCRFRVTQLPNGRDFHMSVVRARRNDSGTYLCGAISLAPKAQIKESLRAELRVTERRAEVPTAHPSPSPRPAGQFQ
Protocol: The ability of disclosed PD-1 antibodies to block the PD-1/PD-L1 interaction was assessed using an ELISA based assay.
Briefly, human PD-L1 was immobilized on 96 well ELISA plates. Plates were washed and blocked for 1.5 hours at 37° C. with block buffer. Plates were washed and test PD-1 antibodies, isotype controls, or a standard curve of PD-1 neutralizing antibody were added to the coated plate and incubated for 1 hour at 37° C. […] Following washing, streptavidin-HRP was added to the plate and the plate was incubated at 37° C. for 1 hour. After a final wash, antibody binding was detected colorimetrically by adding a subrate solution and incubating for 20 minutes protected from light before adding stop solution. Absorbance at 450 nm was measured on a plate reader (PerkinElmer). Data was analyzed using GraphPad Prism.
Percent blocking of tested PD-1 antibodies was determined by interpolating values obtained from each sample against the standard control curve (see FIG. 1) and summarized in Table 4.

B1: PD-1 antibody 1-17 (antibody, V domains shown)
VH: QVQLQESGPGVVKPSGTLSLTCAISGGSIGSGGSIRSTRWWSWVRQSPGKGLEWIGEIYHSGSTNYNPSLKSRVTISLDKSRNHFSLRLNSVTAADTAVYYCARQDYGDSGDWYFDLWGKGTMVTVSS
VL: NFMLTQPHSVSESPGKTVTISCTRSSGSIASNSVQWYQQRPGSSPTTVIYEDNQRPSGVPDRFSGSIDSSSNSASLTVSGLKTEDEADYYCQSSDSSAVVFGSGTKLTVL
notes: detection used an anti-human IgG secondary antibody
binding result [1]: no binding | binding result [2]: no binding | binding result [3]: no binding | Percent Blocking (PD-1 biotin): 7 percent

B3: PD-1 antibody 3H4 (antibody, V domains shown)
VH: QIQLQQSGPELVKPGASVKISCKASGYTFTDYYINWVKQKPGQGLEWIGWIYPGSVNTKYNEKFRGKATLTVDTSSSTAYIQLSGLTSEDTAVYFCARYSNWFFDVWGAGTAVTVS
VL: DIVMTQSPSSLSASLGERVSLTCRASQEISGYLSWLQQKPDGTIKRLIYAASTLDSGVPKRFSGSRSGSDYSLSISSLESEDFADYYCLQYASYPYTFGGGTKLEIKR
notes: detection used an anti-human IgG secondary antibody; also called Murine 3H4
binding result [1]: no binding | binding result [2]: no binding | binding result [3]: no binding | Percent Blocking (PD-1 biotin): 46 percent

B4: PD-1 antibody 1B8 (antibody, V domains shown)
VH: EVQLVLSGGGFVQPGGSLKLSCAASGFTFSSYAMSWVRQNPERRLVWVATITGGGRNTYYPDSVKGRFTISRDNAKNTLYLQMSSLRSEDTAMYYCTRQGYDGYTWFAYWGQGTLVTVS
VL: not shown
notes: detection used an anti-human IgG secondary antibody; also called Murine 1B8
binding result [1]: no binding | binding result [2]: no binding | binding result [3]: no binding | Percent Blocking (PD-1 biotin): 90 percent

B5: PD-1 antibody 20B3.1 (antibody, V domains shown)
VH: EVKLVESGGGLVKPGGSLKLSCAASGFTFSSFGMSWVRQTPEKRLEWVATISGGGSNTYYPDSVKGRFTISRDNAKNNLYLQMTSLTSEDTALYYCTRIYDVAWFAYWGQGTLVTVS
VL: not shown
notes: detection used an anti-human IgG secondary antibody; also called Murine 20B3.1
binding result [1]: no binding | binding result [2]: no binding | binding result [3]: no binding | Percent Blocking (PD-1 biotin): 94 percent

B8: PD-1 antibody 1-33 (antibody, V domains shown)
VH: QVQLVQSGAEVKKPGASVRVSCKASGYTLTSYYIHWVRQAPGQGLEWMGIINPRGATISYAQKFQGRVTMTRDTSTSTVYMELRNLKSEDTALYYCATAGIYGFDFDYWGRGTLVTVSS
VL: QSALTQPASVSGSPGQSITISCTGTSNDVGGYNYVSWYQHHPGKAPKLIIYDVTNRPSGVSDRFSGSKSGNTASLTISGLLAEDEGDYYCSSYTIVTNFEVLFGGGTKLTV
notes: as for B1
binding result [1]: no binding | binding result [2]: no binding | binding result [3]: no binding | Percent Blocking (PD-1 biotin): 68 percent

Other lines, results leading:

binding result [1]: no binding | binding result [2]: no binding | binding result [3]: no binding | Percent Blocking (PD-1 biotin): 87 percent
B2: PD-1 antibody 1-28 (antibody, V domains shown)
VH: EVQLVQSGAEVKKPGASVKVSCKASGYRFTSYGISWVRQAPGQGLEWMGWISAYNGNTNYAQKLQGRVTMTTDTSTNTAYMELRSLRSDDTAVYYCARDADYSSGSGYWGQGTLVTVSS
VL: SYELTQPPSVSVSPGQTARITCSGDALPKQYAYWYQQKPGQAPVMVIYKDTERPSGIPERFSGSSSGTKVTLTISGVQAEDEADYYCQSADNSITYRVFGGGTKVTVL
notes: as for B1

binding result [1]: no binding | binding result [2]: no binding | binding result [3]: no binding | Percent Blocking (PD-1 biotin): 58 percent
B6: PD-1 antibody 1-35 (antibody, V domains shown)
VH: QVQLQESGPGLVKPSQTLSLTCTVSGGSISSGAYYWSWIRQHPGKGLEWIGYIYYNGNTYYNPSLRSLVTISVDASKNQFSLKLSSVTAADTAVYYCARASDYVWGGYRYMDAFDIWGRGTLITVSS
VL: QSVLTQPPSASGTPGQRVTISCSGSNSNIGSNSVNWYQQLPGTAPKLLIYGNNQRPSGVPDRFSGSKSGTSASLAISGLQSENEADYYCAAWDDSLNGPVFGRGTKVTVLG
notes: as for B1

binding result [1]: no binding | binding result [2]: no binding | binding result [3]: no binding | Percent Blocking (PD-1 biotin): 0 percent
B7: PD-1 antibody 2.3A9 (antibody, V domains shown)
VH: QVQLQQSDAELVKPGTSVKISCKASGYTFTDHAIHWLKQEPDQGLEWIGYISPGYGDIEYNEKFKGKATLTADKSSSTAYMQLSSLTSEDSAVYFCKVTTGYWGQGTTLTVS
VL: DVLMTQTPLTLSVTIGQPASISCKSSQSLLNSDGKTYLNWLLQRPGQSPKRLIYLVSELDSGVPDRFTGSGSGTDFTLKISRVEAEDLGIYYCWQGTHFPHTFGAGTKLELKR
notes: detection used an anti-human IgG secondary antibody; also called Murine 2.3A9
